Legend:
[1] = target: Hemagglutinin on intact virus A/Port Chalmers/1/73 (H3N2) (Influenza A virus) (UniProt P03438+P03438); assay: cell_activity
[2] = target: Influenza hemagglutinin fragment HA91-261 (globular region) (Influenza A virus (A/Port …, UniProt Q1PUD9 SEQ:1-171)); assay: ELISA; details: tags: N-terminal 6xHis (pQE30, E. coli, Ni-NTA purified)
Chain of Influenza hemagglutinin fragment HA91-261 (globular region) (Influenza A virus (Q1PUD9 107-277): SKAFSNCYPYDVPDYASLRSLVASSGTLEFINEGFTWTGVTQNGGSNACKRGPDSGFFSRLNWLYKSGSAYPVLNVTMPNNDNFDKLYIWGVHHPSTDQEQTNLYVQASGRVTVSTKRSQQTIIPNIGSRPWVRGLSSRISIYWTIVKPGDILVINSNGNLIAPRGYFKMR

Molecule	binding result [2]	other results
AATTAACCCTCACTAAAGGGCTGAGTCTCAAAACCGCAATACACTGGTTGTATGGTCGAATAAGTTAA [A22]		activity [1]: 70%
A22 (ssDNA) DNA: AATTAACCCTCACTAAAGGGCTGAGTCTCAAAACCGCAATACACTGGTTGTATGGTCGAATAAGTTAA	binds	
AATTAACCCTCACTAAAGGG (ssDNA) [T3 primer negative control]		binding result ([2]; label: biotin): no binding
A21 (ssDNA) DNA: AATTAACCCTCACTAAAGGGCGCTTATTTGTTCAGGTTGGTCTTCCTATTATGGTCGAATAAGTTAA	binds	

From patent US20070059806, “Nucleic acid molecules, polypeptides, antibodies and compositions containing same useful for treating and detecting influenza virus infection” (Yeda Research and Development Co., Ltd. at the Weizmann …, published 2007)
